Where a chain is given by its changes, count along the chain named. Names and notes keep the numbering of the source.
B1: Trap M (Human, NRP1-His-Δb2c-short) (receptor)
chain: FRNDKCGDTIKIESPGYLTSPGYPHSYHPSEKCEWLIQAPDPYQRIMINFNPHFDLEDRDCKYDYVEVFDGENENGHFRGKFCGKIAPPPVVSSGPFLFIKFVSDYETHGAGFSIRYELFKRGPECSQNYTTPSGVIKSPGFPEKYPNSLECTYIVFAPKMSEIILEFESFDLEPDSNPPGGMFCRYDRLEIWDGFPDVGPHIGRYCGQKTPGRIRSSSGILSMVFYTDSAIAKEGFSANYSVLQSSVSEDFKCMEALGMESGEIHSDQITASSQYSTNWSAERSRLNYPENGWTPGEDSYREWIQVDLGLLRFVTAVGTQGAISKETKKKYYVKTYKIDVSSNGEDWITIKEGNKPVLFQGNTNPTDVVVAVFPKPLITRFVRIKPATWETGISMRFEVYGCRSGSKENLYFQGHHHHHH
B2: Trap Z (Human, "full" extracellular domain NRP1-His, VEGF165-Low, E319K/D320K mutations) (receptor)
chain: FRNDKCGDTIKIESPGYLTSPGYPHSYHPSEKCEWLIQAPDPYQRIMINFNPHFDLEDRDCKYDYVEVFDGENENGHFRGKFCGKIAPPPVVSSGPFLFIKFVSDYETHGAGFSIRYELFKRGPECSQNYTTPSGVIKSPGFPEKYPNSLECTYIVFAPKMSEIILEFESFDLEPDSNPPGGMFCRYDRLEIWDGFPDVGPHIGRYCGQKTPGRIRSSSGILSMVFYTDSAIAKEGFSANYSVLQSSVSEDFKCMEALGMESGEIHSDQITASSQYSTNWSAERSRLNYPENGWTPGKKSYREWIQVDLGLLRFVTAVGTQGAISKETKKKYYVKTYKIDVSSNGEDWITIKEGNKPVLFQGNTNPTDVVVAVFPKPLITRFVRIKPATWETGISMRFEVYGCKITDYPCSGMLGMVSGLISDSQITSSNQGDRNWMPENIRLVTSRSGWALPPAPHSYINEWLQIDLGEEKIVRGIIIQGGKHRENKVFMRKFKIGYSNNGSDWKMIMDDSKRKAKSFEGNNNYDTPELRTFPALSTRFIRIYPERATHGGLGLRMELLGCEVEAPTAGPTTPNGNLVDECDDDQANCHSGTGDDFQLTGGTTVLATEKPTVIDSTIQSEFPTYGFNCEFGWGSHKTFCHWEHDNHVQLKWSVLTSKTGPIQDHTGDGNFIYSQADENQKGKVARLVSPVVYSQNSAHCMTFWYHMSGSHVGTLRVKLRYQKPEEYDQLVWMAIGHQGDHWKEGRVLLHKSLKLYQVIFEGEIGKGNLGGIAVDDISINNHISQEDCAKPADLDKKNPEIKIDETGSTPGYEGEGEGDKNISRKPGNVLKTLDPRSGSKENLYFQGHHHHHH
B3: Trap R (Human, NRP1-His-Δc-VEGF low) (receptor)
chain: B2 chain with Y276A, K298E, K299D
B4: Trap AC (Human, "full" extracellular domain NRP1-His-VEGF-low, D320K mutation) (receptor)
chain: B2 chain with K298E

What follows are molecules tested against Recombinant human SEMA3A Fc chimera (R&D Systems) (human) (UniProt Q14563) (assay: plate saturation binding; trap coated, SEMA3A-FC titrated, HRP anti-human IgG chemiluminescence, non-linear fit).

Kd	Molecule
0.8 nM	Trap G (Human, "full" extracellular domain NRP1-His) (from UniProt O14786 22-856) (receptor)
1.05 nM	Trap O (Human, NRP1-His-Δc-short) (from UniProt O14786 22-583) (receptor)
0.95 nM	B1
4.44 nM	B2
6.15 nM	B3
4 nM	B4

Source: patent US20230265199A1
